{"source": "patent US9540424B2", "about": "“Serum albumin binding molecules” (BRISTOL-MYERS SQUIBB COMPANY, priority 2010, dated 2017)", "molecules": {"B1": {"name": "SABA1.2: “core 1” 10Fn3 comprising an (ED)5 extension; SEQ ID NO: 90 (protein)", "chain": "MGVSDVPRDLEVVAATPTSLLISWHSYYEQNSYYRITYGETGGNSPVQEFTVPYSQTTATISGLKPGVDYTITVYAVYGSKYYYPISINYRTEIEDEDEDEDED"}}, "key": {"anesthetized rats": {"system": "anesthetized rats", "assay": "Blood pressure in anesthetized rats after intravenous delivery", "format": "in vivo, rat", "settings": "APLNv4 60 μg/kg, SABA-APLNv2 600 μg/kg", "text": "Potential explanations for the absence of activity with the SABA-APLNv2 construct can include lessened potency due to poorer productive collision frequency, steric hindrance, or peptide-PKE annealing."}, "[1]": {"assay": "NOEL of SABA1.2 in cyno monkeys", "format": "in vivo", "settings": "IV, dosed twice weekly for 5 doses", "protocol": "The NOEL (No observed effective level) in cyno monkeys is 30 mg/kg IV when dosed twice weekly for 5 doses. […] Thus, ample safety factors have been taken into consideration for the dosing levels in this study.”"}, "[2]": {"settings": "cynomolgus monkey, in vivo", "method": "The pharmacokinetics and bioavailability were also evaluated in a three-week, single-dose pre-toxicology study that included both intravenous and subcutaneous administration arms.\nNon-compartmental analyses using WinNonlin software were performed to evaluate pharmacokinetic parameters."}, "rat serum albumin": {"target": "rat serum albumin (Rattus norvegicus, UniProt P02770)", "sequence (P02770 25-608)": "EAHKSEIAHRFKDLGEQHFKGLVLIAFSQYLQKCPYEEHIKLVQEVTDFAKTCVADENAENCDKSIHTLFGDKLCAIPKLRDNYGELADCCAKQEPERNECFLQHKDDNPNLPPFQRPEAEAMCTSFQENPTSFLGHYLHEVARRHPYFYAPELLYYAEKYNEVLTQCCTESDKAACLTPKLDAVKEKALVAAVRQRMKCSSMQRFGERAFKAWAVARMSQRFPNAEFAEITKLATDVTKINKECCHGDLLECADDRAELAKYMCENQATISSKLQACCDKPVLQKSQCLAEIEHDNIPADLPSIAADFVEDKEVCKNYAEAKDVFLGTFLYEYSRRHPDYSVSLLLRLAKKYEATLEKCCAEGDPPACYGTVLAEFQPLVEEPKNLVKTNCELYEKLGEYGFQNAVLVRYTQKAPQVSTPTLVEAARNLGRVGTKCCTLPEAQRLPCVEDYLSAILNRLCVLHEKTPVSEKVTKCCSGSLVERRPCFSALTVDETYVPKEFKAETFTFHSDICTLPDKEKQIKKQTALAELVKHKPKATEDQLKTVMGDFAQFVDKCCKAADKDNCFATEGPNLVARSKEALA", "assay": "SABA1.2 binding to rat serum albumin", "settings": "up to 1 μM"}, "HSA": {"target": "HSA (Homo sapiens, UniProt P02768)", "method": "(§1) In addition, binding to albumin was carried out under various pH conditions ranging from pH 5.5 to pH 7.4."}, "RhSA": {"target": "RhSA (Macaca mulatta, UniProt Q28522)", "sequence (Q28522 17-600)": "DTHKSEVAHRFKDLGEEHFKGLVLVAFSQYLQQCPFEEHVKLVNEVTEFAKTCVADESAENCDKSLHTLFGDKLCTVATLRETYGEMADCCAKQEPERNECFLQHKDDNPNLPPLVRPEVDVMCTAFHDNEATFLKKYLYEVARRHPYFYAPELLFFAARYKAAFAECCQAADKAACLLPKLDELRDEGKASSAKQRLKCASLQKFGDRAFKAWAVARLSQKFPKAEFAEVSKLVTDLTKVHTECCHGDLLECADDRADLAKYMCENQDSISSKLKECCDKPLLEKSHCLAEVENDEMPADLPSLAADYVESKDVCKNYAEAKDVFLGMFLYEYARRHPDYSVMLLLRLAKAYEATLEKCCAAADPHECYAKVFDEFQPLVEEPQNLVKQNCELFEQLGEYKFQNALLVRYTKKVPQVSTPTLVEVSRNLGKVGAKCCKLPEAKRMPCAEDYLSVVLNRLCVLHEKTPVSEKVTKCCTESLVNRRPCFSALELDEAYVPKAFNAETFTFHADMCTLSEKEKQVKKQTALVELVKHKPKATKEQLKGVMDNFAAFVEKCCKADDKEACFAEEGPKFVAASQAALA", "assay": "Biacore kinetics of SABAs on immobilized serum albumin: RhSA", "format": "binding, rhesus", "settings": "Rhesus albumin", "method": "as §1"}, "[3]": {"assay": "Preliminary formulation screen and stability of SABA1.2"}, "MuSA": {"target": "MuSA (Mus musculus, UniProt P07724)", "sequence (P07724 25-608)": "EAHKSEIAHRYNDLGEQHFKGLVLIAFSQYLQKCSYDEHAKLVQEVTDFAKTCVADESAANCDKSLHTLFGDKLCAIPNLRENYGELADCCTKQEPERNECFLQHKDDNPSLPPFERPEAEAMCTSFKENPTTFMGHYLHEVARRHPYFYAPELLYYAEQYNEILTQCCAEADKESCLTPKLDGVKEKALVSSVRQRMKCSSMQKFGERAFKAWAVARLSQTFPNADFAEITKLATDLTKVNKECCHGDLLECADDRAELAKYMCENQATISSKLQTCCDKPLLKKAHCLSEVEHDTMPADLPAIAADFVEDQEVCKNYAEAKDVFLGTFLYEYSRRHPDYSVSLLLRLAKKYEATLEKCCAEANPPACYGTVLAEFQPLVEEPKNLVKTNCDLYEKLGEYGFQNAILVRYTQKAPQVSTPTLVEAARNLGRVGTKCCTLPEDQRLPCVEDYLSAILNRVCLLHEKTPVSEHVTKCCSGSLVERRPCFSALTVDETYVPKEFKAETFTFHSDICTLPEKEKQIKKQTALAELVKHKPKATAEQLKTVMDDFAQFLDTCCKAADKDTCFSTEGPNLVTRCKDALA", "assay": "Biacore kinetics of SABAs on immobilized serum albumin: MuSA", "format": "binding", "settings": "HBS-P buffer"}}, "note": "Entries after “also recorded” stand apart in the source; their conditions may differ. Like-named read-outs stand apart in the source and are kept apart here.", "data": [{"molecule": "APLNv4: Apelin peptide variant fused in SABA-APLNv2 (QRPRLSHKGPMPF)", "values": [{"measurement": "effect on blood pressure", "setting": "anesthetized rats", "result": "robust hypotensive effect"}]}, {"molecule": "B1", "values": [{"measurement": "NOEL (No observed effective level)", "setting": "[1]", "result": 30, "unit": "mg/kg"}, {"measurement": "Bioavailability (F)", "setting": "[2]; 1 mg/kg", "result": 0.7}, {"measurement": "AUCall (hr * nmol/L)", "setting": "[2]; iv, 10 mg/kg", "result": "5,609,457 hr * nmol/L"}, {"measurement": "Vz", "setting": "[2]; iv, 10 mg/kg", "result": 0.03, "unit": "L/kg"}, {"measurement": "beta T1/2", "setting": "[2]; iv, 10 mg/kg", "result": 143, "unit": "h"}, {"measurement": "AUCall (hr * nmol/L)", "setting": "[2]; sc, 1 mg/kg", "result": "251,339 hr * nmol/L"}, {"measurement": "Vz", "setting": "[2]; sc, 1 mg/kg", "result": 0.062, "unit": "L/kg"}, {"measurement": "beta T1/2", "setting": "[2]; sc, 1 mg/kg", "result": 134, "unit": "h"}, {"measurement": "interaction with rat serum albumin", "setting": "rat serum albumin", "result": "No measurable interaction"}, {"measurement": "kd (1/s)", "setting": "HSA; Human albumin, 25° C., HBS-P buffer", "result": "4.43 ± 0.65E−04 1/s"}, {"measurement": "kd", "setting": "HSA; Human albumin, 37° C., HBS-P buffer", "result": 0.000815, "unit": "s⁻¹"}, {"measurement": "kd", "setting": "HSA; Human albumin, pH 5.5, MES buffer", "result": 0.00027, "unit": "s⁻¹"}, {"measurement": "kd", "setting": "HSA; Human albumin, pH 7.4, MES buffer", "result": 0.000388, "unit": "s⁻¹"}, {"measurement": "ka", "setting": "HSA; pH 5.5", "result": 9440, "unit": "M⁻¹ s⁻¹"}, {"measurement": "ka", "setting": "HSA; pH 7.4", "result": 9260, "unit": "M⁻¹ s⁻¹"}, {"measurement": "ka", "setting": "RhSA; 25° C., HBS-P buffer", "result": 6600, "unit": "M⁻¹ s⁻¹"}, {"measurement": "kd (1/s)", "setting": "RhSA; 25° C., HBS-P buffer", "result": "3.78 ± 0.45E−03 1/s"}, {"measurement": "ka", "setting": "RhSA; 37° C., HBS-P buffer", "result": 18900, "unit": "M⁻¹ s⁻¹"}, {"measurement": "kd", "setting": "RhSA; 37° C., HBS-P buffer", "result": 0.0185, "unit": "s⁻¹"}, {"measurement": "ka", "setting": "RhSA; pH 5.5, MES buffer", "result": 7570, "unit": "M⁻¹ s⁻¹"}, {"measurement": "kd", "setting": "RhSA; pH 5.5, MES buffer", "result": 0.00272, "unit": "s⁻¹"}, {"measurement": "ka", "setting": "RhSA; pH 7.4, MES buffer", "result": 6160, "unit": "M⁻¹ s⁻¹"}, {"measurement": "kd", "setting": "RhSA; pH 7.4, MES buffer", "result": 0.00295, "unit": "s⁻¹"}, {"measurement": "protein melting temperature by DSC", "setting": "[3]; 10 mM succinic acid, 8% sorbitol, 5% glycine, pH 6.0, 1.25 mg/mL protein", "result": 75, "unit": "°C"}, {"measurement": "level of aggregation after one month", "setting": "[3]; 4° C.", "result": 1.6, "unit": "%"}, {"measurement": "solubility in the formulation", "setting": "[3]; 4° C. and ambient temperature, no precipitation or increase in aggregation", "result": "at least 20 mg/mL"}, {"measurement": "level of aggregation after one month", "setting": "[3]; 25° C.", "result": 3.8, "unit": "%"}, {"measurement": "initial aggregate level", "setting": "[3]; formulation pH 6.0, 5 mg/mL", "result": 1.2, "unit": "%"}, {"measurement": "binding to Mouse albumin", "setting": "MuSA; 25° C., up to 1 μM", "result": "No measurable interaction; also recorded: no observable binding"}, {"measurement": "binding to Mouse albumin", "setting": "MuSA; 37° C.", "result": "no observable binding"}]}]}
